Stoichiometry N data for one substance are collected here from article PMC7796288.

The target of the test is Pomacea bridgesii metallothionein 2 (PbrMT2), recombinant Cd(II)-loaded preparation (Pomacea bridgesii). Kind of test: native MS; ESI-TOF MS at neutral pH (7.0), running buffer 5:95 acetonitrile:ammonium acetate (15 mM); Cd-PbrMT2 production from a CdCl2-supplemented culture; dimeric species seen together with monomeric Cd8- and Cd9- species.

With “Pomacea bridgesii metallothionein 2 (PbrMT2), recombinant Cd(II)-loaded preparation (natural protein)”, the stoichiometry N turned out to be 2.

By stoichiometry N is commonly meant a count of units in the complex or per binding partner.
